Laboratory results published in PMC6393309 (Nucleic Acids Research, 2019).
“And” between values parts separate entries of the source, which are not always exact repeats. Equal entries are not always repeated. “Also recorded” adds a separate entry of the source. Residues, ends and D or L forms follow the SMILES beside them. No end group written: not given here. *: point of attachment. 5FAM = O=C1OC2(c3ccc(O)cc3Oc3cc(O)ccc32)c2ccc(C(=O)*)cc21

B4: λ Exonuclease, full-length, untagged (enzyme)
chain: MTPDIILQRTGIDVRAVEQGDDAWHKLRLGVITASEVHNVIAKPRSGKKWPDMKMSYFHTLLAEVCTGVAPEVNAKALAWGKQYENDARTLFEFTSGVNVTESPIIYRDESMRTACSPDGLCSDGNGLELKCPFTSRDFMKFRLGGFEAIKSAYMAQVQYSMWVTRKNAWYFANYDPRMKREGLHYVVIERDEKYMASFDEIVPEFIEKMDEALAEIGFVFGEQWR

Assays:
λ Exo – Redβ complex = target: T1, λ Exo – Redβ complex (Escherichia phage lambda, UniProt P03698); experiment: Fluorescence anisotropy binding of SSB-Ct peptide to λ Exo–Redβ complex; parameters: species or system Bacteriophage λ
T1 sequence (P03698 1-261): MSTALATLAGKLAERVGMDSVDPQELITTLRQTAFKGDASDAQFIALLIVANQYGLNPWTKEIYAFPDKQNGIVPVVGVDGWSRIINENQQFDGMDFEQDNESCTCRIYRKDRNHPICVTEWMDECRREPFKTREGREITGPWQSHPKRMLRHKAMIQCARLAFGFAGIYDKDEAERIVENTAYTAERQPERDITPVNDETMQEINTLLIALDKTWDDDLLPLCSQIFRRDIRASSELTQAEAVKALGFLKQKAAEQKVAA

Redβ = target: T2, Redβ (Escherichia phage lambda, UniProt P03698); experiment: Fluorescence anisotropy binding of SSB-Ct peptide to Redβ; parameters: species or system Bacteriophage λ; settings: 20 nM FAM-WMDFDDDIPA, full-length Redβ, pH 7.5, 25°C
T2 sequence (P03698 1-261): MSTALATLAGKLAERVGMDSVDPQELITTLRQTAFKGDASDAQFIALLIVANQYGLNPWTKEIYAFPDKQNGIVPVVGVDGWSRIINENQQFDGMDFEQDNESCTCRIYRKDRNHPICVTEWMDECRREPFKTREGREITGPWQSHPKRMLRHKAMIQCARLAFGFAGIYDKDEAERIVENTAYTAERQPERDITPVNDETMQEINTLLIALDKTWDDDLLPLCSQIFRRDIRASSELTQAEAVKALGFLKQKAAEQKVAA

λ Exo = settings: Ni-spin pull down; cited from earlier work
ssDNA or dsDNA = settings: cited from earlier work
[1] = target: B4; experiment: crystal structure
[2] = target: T3, 6His-tagged Escherichia coli exonuclease I (Escherichia coli, UniProt P04995 1-475); experiment: fluorescence polarisation
T3 sequence: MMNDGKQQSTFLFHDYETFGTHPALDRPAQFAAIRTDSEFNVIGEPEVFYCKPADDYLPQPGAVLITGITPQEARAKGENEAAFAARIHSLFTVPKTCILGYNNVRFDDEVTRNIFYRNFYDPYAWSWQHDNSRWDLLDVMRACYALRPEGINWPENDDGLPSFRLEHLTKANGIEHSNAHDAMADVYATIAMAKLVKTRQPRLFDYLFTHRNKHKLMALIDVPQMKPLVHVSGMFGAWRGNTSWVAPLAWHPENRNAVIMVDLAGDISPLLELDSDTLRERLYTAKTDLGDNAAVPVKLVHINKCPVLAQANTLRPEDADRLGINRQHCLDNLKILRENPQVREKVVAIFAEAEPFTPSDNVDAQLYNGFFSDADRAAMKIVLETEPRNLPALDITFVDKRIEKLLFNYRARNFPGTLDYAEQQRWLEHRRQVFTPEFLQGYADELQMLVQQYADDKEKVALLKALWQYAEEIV

[3] = target: T4, complex of λ Exo and full-length untagged Redβ (bacteriophage λ, UniProt P03697;P03698); experiment: fluorescence polarisation
T4 sequence 1: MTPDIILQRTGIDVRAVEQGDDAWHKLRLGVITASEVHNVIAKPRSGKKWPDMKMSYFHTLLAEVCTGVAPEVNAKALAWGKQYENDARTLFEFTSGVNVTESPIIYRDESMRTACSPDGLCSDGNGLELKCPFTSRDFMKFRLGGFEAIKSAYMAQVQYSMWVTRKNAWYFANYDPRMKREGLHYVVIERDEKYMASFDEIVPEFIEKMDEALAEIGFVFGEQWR
T4 sequence 2: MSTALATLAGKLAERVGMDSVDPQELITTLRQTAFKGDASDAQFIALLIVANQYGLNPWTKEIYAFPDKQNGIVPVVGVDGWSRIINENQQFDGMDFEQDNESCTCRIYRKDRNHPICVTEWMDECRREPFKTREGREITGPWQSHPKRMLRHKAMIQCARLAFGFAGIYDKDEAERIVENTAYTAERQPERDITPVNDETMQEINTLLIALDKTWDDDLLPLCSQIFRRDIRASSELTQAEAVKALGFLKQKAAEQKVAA

[4] = target: T5, Redβ, full-length, untagged (wild type) (bacteriophage λ, UniProt P03698 1-261); experiment: fluorescence polarisation
T5 sequence: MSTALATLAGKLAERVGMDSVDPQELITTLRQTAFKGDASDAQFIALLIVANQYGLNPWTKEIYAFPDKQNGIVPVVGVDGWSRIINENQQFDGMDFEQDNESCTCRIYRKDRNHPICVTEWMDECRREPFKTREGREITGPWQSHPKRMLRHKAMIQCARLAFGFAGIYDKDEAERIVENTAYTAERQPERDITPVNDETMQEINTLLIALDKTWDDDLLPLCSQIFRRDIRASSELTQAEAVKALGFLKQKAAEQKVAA

[5] = cited from earlier work
[6] = cited from earlier work; remark: listed apart in the source
crystal structure = target: the molecule itself; experiment: crystal structure
SSB = settings: cited from earlier work

## CC[C@H](C)[C@H](NC(=O)[C@H](CC(=O)O)NC(=O)[C@H](CC(=O)O)NC(=O)[C@H](CC(=O)O)NC(=O)[C@H](Cc1ccccc1)NC(=O)[C@H](CC(=O)O)NC(=O)[C@H](CCSC)NC(=O)[C@H](Cc1c[nH]c2ccccc12)NC(=O)c1ccc2c(c1)C(=O)OC21c2ccc(O)cc2Oc2cc(O)ccc21)C(=O)N1CCC[C@H]1C(=O)N[C@@H](Cc1ccccc1)C(=O)O [SSB-Ct, FAM-WMDFDDDIPF] (5FAM-WMDFDDDIPF-OH)
λ Exo – Redβ complex
  Kd: 12.8 ± 3.5 µM

## FAM-WMDFDDDIPA [SSB-Ct peptide with the F177A mutation]
Redβ
  binding of F177A SSB-Ct peptide to Redβ: completely failed to interact; also recorded: fails to bind

B1: Redβ C-terminal domain (residues 183-261) (domain or fragment)
chain: AYTAERQPERDITPVNDETMQEINTLLIALDKTWDDDLLPLCSQIFRRDIRASSELTQAEAVKALGFLKQKAAEQKVAA
λ Exo
  interaction with λ Exo: clear interaction
ssDNA or dsDNA
  interaction with ssDNA or dsDNA: no interaction with ssDNA or dsDNA
[1]
  binding result: binds

B2: SSB C-terminal peptide, fluorescein-labeled (FAM-WMDFDDDIPF) (peptide)
peptide: {FAM}-WMDFDDDIPF
[2]
  Kd: 0.098 µM
[3]
  Kd: 12.8 µM and 12 µM
[4]
  Kd: 10.6 µM

B3: Redβ^1–250: variant of Redβ lacking the C-terminal 11 residues (protein)
chain: MSTALATLAGKLAERVGMDSVDPQELITTLRQTAFKGDASDAQFIALLIVANQYGLNPWTKEIYAFPDKQNGIVPVVGVDGWSRIINENQQFDGMDFEQDNESCTCRIYRKDRNHPICVTEWMDECRREPFKTREGREITGPWQSHPKRMLRHKAMIQCARLAFGFAGIYDKDEAERIVENTAYTAERQPERDITPVNDETMQEINTLLIALDKTWDDDLLPLCSQIFRRDIRASSELTQAEAVKALGFL
λ Exo
  interaction with λ Exo: completely disrupts the interaction with λ Exo
[5]
  dsDNA recombination: completely disrupts
[6]
  ssDNA recombination: completely disrupts

## B4
Crystal structure
  stoichiometry N: 3

B5: YbcN: Orf homolog from E. coli cryptic prophage DLP12 (protein, UniProt Q47269 1-151, looked up)
Uncharacterized protein YbcN: MNLSQDGIKLHRGNFTAIGRQIQPYLEEGKCFRMVLKPWREKRSLSQNALSHMWYSEISEYLISRGKTFATPAWVKDALKHTYLGYETKDLVDVVTGDITTIQSLRHTSDLDTGEMYVFLCKVEAWAMNIGCHLTIPQSCEFQLLRDKQEA
SSB
  requirement of SSB C-tail for interaction with SSB: does require the C-tail for its interaction with SSB
